Measurements as given in patent US20220372155A1 (LYVGEN BIOPHARMA, published 2022).

Target: T1, human CD40 expressed on CHO cells (human, UniProt P25942 21-277)
T1 construct: whole, on cells; also used for the reporter cells over-expressing human CD40; also called cellular CD40; CHO-CD40 cells
Assay: FACS, CHO cells

T1 sequence (P25942 21-277): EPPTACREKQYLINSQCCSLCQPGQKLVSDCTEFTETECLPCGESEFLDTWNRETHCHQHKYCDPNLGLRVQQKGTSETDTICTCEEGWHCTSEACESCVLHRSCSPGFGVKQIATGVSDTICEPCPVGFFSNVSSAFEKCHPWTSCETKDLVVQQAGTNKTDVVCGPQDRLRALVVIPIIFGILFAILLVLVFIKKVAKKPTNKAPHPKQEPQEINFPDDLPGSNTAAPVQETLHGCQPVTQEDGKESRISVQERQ

binding result	Binder
binds	TM738 (antibody, human IgG1, kappa, V domains shown, VH-2Q/IgG1mut, VL-1/kappa) VH: QVQLVESGGGLVQPGGSLKLSCATSGFNFQDSFMNWVRQASGKGLEWVGQIRNKNYNYATYYTESLEGRVTISRDDSKNTAYLQMNSLKTEDTAVYYCTSYYYDGFADYFDYWGQGTTVTVSS VL: DIQMTQSPSSLSASVGDRVTITCKASQNIYIYLNWYQQKPGKAPKLLIYNTNNLQTGVPSRFSGSGSGTDFTLTISSLQPEDFATYYCLQHSSRRTFGGGTKVEIKR
binds	Ly181 (antibody, human IgG2, kappa, VH-2Y/IgG2, VL-1/kappa) heavy: QVQLVESGGGLVQPGGSLKLSCATSGFNFNDYFMNWVRQASGKGLEWVGQIRNKNYNYATYYTESLEGRVTISRDDSKNTAYLQMNSLKTEDTAVYYCTSYYYDGFADYFDYWGQGTTVTVSSASTKGPSVFPLAPCSRSTSESTAALGCLVKDYFPEPVTVSWNSGALTSGVHTFPAVLQSSGLYSLSSVVTVPSSNFGTQTYTCNVDHKPSNTKVDKTVERKCCVECPPCPAPPVAGPSVFLFPPKPKDTLMISRTPEVTCVVVDVSHEDPEVQFNWYVDGVEVHNAKTKPREEQFNSTFRVVSVLTVVHQDWLNGKEYKCKVSNKGLPAPIEKTISKTKGQPREPQVYTLPPSREEMTKNQVSLTCLVKGFYPSDIAVEWESNGQPENNYKTTPPMLDSDGSFFLYSKLTVDKSRWQQGNVFSCSVMHEALHNHYTQKSLSLSPG light: DIQMTQSPSSLSASVGDRVTITCKASQNIYIYLNWYQQKPGKAPKLLIYNTNNLQTGVPSRFSGSGSGTDFTLTISSLQPEDFATYYCLQHSSRRTFGGGTKVEIKRTVAAPSVFIFPPSDEQLKSGTASVVCLLNNFYPREAKVQWKVDNALQSGNSQESVTEQDSKDSTYSLSSTLTLSKADYEKHKVYACEVTHQGLSSPVTKSFNRGEC
binds	TM740 (antibody, human IgG1, kappa, VH-2Y/IgG1mut, VL-1/kappa) heavy: QVQLVESGGGLVQPGGSLKLSCATSGFNFNDYFMNWVRQASGKGLEWVGQIRNKNYNYATYYTESLEGRVTISRDDSKNTAYLQMNSLKTEDTAVYYCTSYYYDGFADYFDYWGQGTTVTVSSASTKGPSVFPLAPSSKSTSGGTAALGCLVKDYFPEPVTVSWNSGALTSGVHTFPAVLQSSGLYSLSSVVTVPSSSLGTQTYICNVNHKPSNTKVDKKVEPKSCDKTHTCPPCPAPELLGPSVFLFPPKPKDTLMISRTPEVTCVVVDVEHEDPEVKFNWYVDGVEVHNAKTKPREEQYNSTYRVVSVLTVLHQDWLNGKEYKCKVSNKALPAPIEKTISKAKGQPREPQVYTLPPSREEMTKNQVSLTCLVKGFYPSDIAVEWESNGQPENNYKTTPPVLDSDGSFFLYSKLTVDKSRWQQGNVFSCSVMHEALHNHYTQKSLSLSPG light: DIQMTQSPSSLSASVGDRVTITCKASQNIYIYLNWYQQKPGKAPKLLIYNTNNLQTGVPSRFSGSGSGTDFTLTISSLQPEDFATYYCLQHSSRRTFGGGTKVEIKRTVAAPSVFIFPPSDEQLKSGTASVVCLLNNFYPREAKVQWKVDNALQSGNSQESVTEQDSKDSTYSLSSTLTLSKADYEKHKVYACEVTHQGLSSPVTKSFNRGEC
binds	TM550 (antibody, human IgG2, kappa, V domains shown, CDR grafted humanized LYV377) VH: EVQLVESGGGLVQPGGSLKLSCAASGFNFNDSFMNWVRQASGKGLEWVGQIRNKNYNYATYYTESLEGRFTISRDDSKNTAYLQMNSLKTEDTAVYYCTRYYYDGFADYFDYWGQGTTVTVSS VL: DIQMTQSPSSLSASVGDRVTITCKASQNIYIYLNWYQQKPGKAPKLLIYNTNNLQTGVPSRFSGSGSGTDFTLTISSLQPEDFATYYCLQHSSRRTFGGGTKVEIKR
binds	TM739 (antibody, human IgG1, kappa, V domains shown, VH-2A/IgG1mut, VL-1/kappa) VH: QVQLVESGGGLVQPGGSLKLSCATSGFNFNDAFMNWVRQASGKGLEWVGQIRNKNYNYATYYTESLEGRVTISRDDSKNTAYLQMNSLKTEDTAVYYCTSYYYDGFADYFDYWGQGTTVTVSS VL: DIQMTQSPSSLSASVGDRVTITCKASQNIYIYLNWYQQKPGKAPKLLIYNTNNLQTGVPSRFSGSGSGTDFTLTISSLQPEDFATYYCLQHSSRRTFGGGTKVEIKR

The next lines start with the binder.

Binder	binding result
TM378 (antibody, human IgG4 S228P, kappa, V domains shown, chimeric LYV378, human IgG4; also called chimeric counterpart TM378) VH: EVHLVESGGGLVQPGRSLKLSCAASGFTFTNYGLHWIRQAPTKGLEWVASISPSGGVTYYRDSVKGRFTISRDNGKTTLHLQMDSLRSEDTATYYCALPFLGWGGANWIAHWGQGTLVTVSS VL: DIQMTQSPASLSASLGETVSIECLASEDISNDLAWYQQKSGKSPQLLIYFVDRLLDGVPSRFSGSGSGTRHSLKISGMQPEDEADYFCQQSYKYPPTFGGGTKLELKR	binds
TM559 (antibody, human IgG2, kappa, LYV378_VH-1/IgG2, LYV378_VL-1/kappa) heavy: EVQLVESGGGLVQPGGSLRLSCAASGFTFTNYGLHWVRQAPGKGLEWVSSISPSGGVTYYRDSVKGRFTISRDNSKNTLYLQMNSLRAEDTAVYYCAKPFLGWGGANWIAHWGQGTLVTVSSASTKGPSVFPLAPCSRSTSESTAALGCLVKDYFPEPVTVSWNSGALTSGVHTFPAVLQSSGLYSLSSVVTVPSSNFGTQTYTCNVDHKPSNTKVDKTVERKCCVECPPCPAPPVAGPSVFLFPPKPKDTLMISRTPEVTCVVVDVSHEDPEVQFNWYVDGVEVHNAKTKPREEQFNSTFRVVSVLTVVHQDWLNGKEYKCKVSNKGLPAPIEKTISKTKGQPREPQVYTLPPSREEMTKNQVSLTCLVKGFYPSDIAVEWESNGQPENNYKTTPPMLDSDGSFFLYSKLTVDKSRWQQGNVFSCSVMHEALHNHYTQKSLSLSPG light: DIQMTQSPSSLSASVGDRVTITCLASEDISNDLAWYQQKPGKAPKLLIYFVDRLLDGVPSRFSGSGSGTDFTLTISSLQPEDFATYYCQQSYKYPPTFGQGTKLEIKRTVAAPSVFIFPPSDEQLKSGTASVVCLLNNFYPREAKVQWKVDNALQSGNSQESVTEQDSKDSTYSLSSTLTLSKADYEKHKVYACEVTHQGLSSPVTKSFNRGEC	binds
LP3781 (antibody, human IgG1, kappa, LYV378_VH-1/IgG1, LYV378_VL-1/kappa; also called TM3781) heavy: not shown light: DIQMTQSPSSLSASVGDRVTITCLASEDISNDLAWYQQKPGKAPKLLIYFVDRLLDGVPSRFSGSGSGTDFTLTISSLQPEDFATYYCQQSYKYPPTFGQGTKLEIKRTVAAPSVFIFPPSDEQLKSGTASVVCLLNNFYPREAKVQWKVDNALQSGNSQESVTEQDSKDSTYSLSSTLTLSKADYEKHKVYACEVTHQGLSSPVTKSFNRGEC	binds
LP3782 (antibody, human IgG4 S228P, kappa, LYV378_VH-1/IgG4, LYV378_VL-1/kappa; also called TM3782) heavy: not shown light: DIQMTQSPSSLSASVGDRVTITCLASEDISNDLAWYQQKPGKAPKLLIYFVDRLLDGVPSRFSGSGSGTDFTLTISSLQPEDFATYYCQQSYKYPPTFGQGTKLEIKRTVAAPSVFIFPPSDEQLKSGTASVVCLLNNFYPREAKVQWKVDNALQSGNSQESVTEQDSKDSTYSLSSTLTLSKADYEKHKVYACEVTHQGLSSPVTKSFNRGEC	binds
LP3783 (antibody, human IgG1, kappa, LYV378_VH-1/IgG1mut, LYV378_VL-1/kappa; also called TM3783; Ly3783) heavy: EVQLVESGGGLVQPGGSLRLSCAASGFTFTNYGLHWVRQAPGKGLEWVSSISPSGGVTYYRDSVKGRFTISRDNSKNTLYLQMNSLRAEDTAVYYCAKPFLGWGGANWIAHWGQGTLVTVSSASTKGPSVFPLAPSSKSTSGGTAALGCLVKDYFPEPVTVSWNSGALTSGVHTFPAVLQSSGLYSLSSVVTVPSSSLGTQTYICNVNHKPSNTKVDKKVEPKSCDKTHTCPPCPAPELLGPSVFLFPPKPKDTLMISRTPEVTCVVVDVEHEDPEVKFNWYVDGVEVHNAKTKPREEQYNSTYRVVSVLTVLHQDWLNGKEYKCKVSNKALPAPIEKTISKAKGQPREPQVYTLPPSREEMTKNQVSLTCLVKGFYPSDIAVEWESNGQPENNYKTTPPVLDSDGSFFLYSKLTVDKSRWQQGNVFSCSVMHEALHNHYTQKSLSLSPG light: DIQMTQSPSSLSASVGDRVTITCLASEDISNDLAWYQQKPGKAPKLLIYFVDRLLDGVPSRFSGSGSGTDFTLTISSLQPEDFATYYCQQSYKYPPTFGQGTKLEIKRTVAAPSVFIFPPSDEQLKSGTASVVCLLNNFYPREAKVQWKVDNALQSGNSQESVTEQDSKDSTYSLSSTLTLSKADYEKHKVYACEVTHQGLSSPVTKSFNRGEC	binds
TM553 (antibody, human IgG2, kappa, VH-2/IgG2, VL-1/kappa) heavy: QVQLVESGGGLVQPGGSLKLSCATSGFNFNDSFMNWVRQASGKGLEWVGQIRNKNYNYATYYTESLEGRVTISRDDSKNTAYLQMNSLKTEDTAVYYCTSYYYDGFADYFDYWGQGTTVTVSSASTKGPSVFPLAPCSRSTSESTAALGCLVKDYFPEPVTVSWNSGALTSGVHTFPAVLQSSGLYSLSSVVTVPSSNFGTQTYTCNVDHKPSNTKVDKTVERKCCVECPPCPAPPVAGPSVFLFPPKPKDTLMISRTPEVTCVVVDVSHEDPEVQFNWYVDGVEVHNAKTKPREEQFNSTFRVVSVLTVVHQDWLNGKEYKCKVSNKGLPAPIEKTISKTKGQPREPQVYTLPPSREEMTKNQVSLTCLVKGFYPSDIAVEWESNGQPENNYKTTPPMLDSDGSFFLYSKLTVDKSRWQQGNVFSCSVMHEALHNHYTQKSLSLSPG light: DIQMTQSPSSLSASVGDRVTITCKASQNIYIYLNWYQQKPGKAPKLLIYNTNNLQTGVPSRFSGSGSGTDFTLTISSLQPEDFATYYCLQHSSRRTFGGGTKVEIKRTVAAPSVFIFPPSDEQLKSGTASVVCLLNNFYPREAKVQWKVDNALQSGNSQESVTEQDSKDSTYSLSSTLTLSKADYEKHKVYACEVTHQGLSSPVTKSFNRGEC	binds
LP3773 (antibody, human IgG1, kappa, VH-2/IgG1mut, VL-1/kappa) heavy: QVQLVESGGGLVQPGGSLKLSCATSGFNFNDSFMNWVRQASGKGLEWVGQIRNKNYNYATYYTESLEGRVTISRDDSKNTAYLQMNSLKTEDTAVYYCTSYYYDGFADYFDYWGQGTTVTVSSASTKGPSVFPLAPSSKSTSGGTAALGCLVKDYFPEPVTVSWNSGALTSGVHTFPAVLQSSGLYSLSSVVTVPSSSLGTQTYICNVNHKPSNTKVDKKVEPKSCDKTHTCPPCPAPELLGPSVFLFPPKPKDTLMISRTPEVTCVVVDVEHEDPEVKFNWYVDGVEVHNAKTKPREEQYNSTYRVVSVLTVLHQDWLNGKEYKCKVSNKALPAPIEKTISKAKGQPREPQVYTLPPSREEMTKNQVSLTCLVKGFYPSDIAVEWESNGQPENNYKTTPPVLDSDGSFFLYSKLTVDKSRWQQGNVFSCSVMHEALHNHYTQKSLSLSPG light: DIQMTQSPSSLSASVGDRVTITCKASQNIYIYLNWYQQKPGKAPKLLIYNTNNLQTGVPSRFSGSGSGTDFTLTISSLQPEDFATYYCLQHSSRRTFGGGTKVEIKRTVAAPSVFIFPPSDEQLKSGTASVVCLLNNFYPREAKVQWKVDNALQSGNSQESVTEQDSKDSTYSLSSTLTLSKADYEKHKVYACEVTHQGLSSPVTKSFNRGEC	binds
